# Experimental data taken from a protein production outcome set (Wang et al. 2014).
# Test: label from the status in PepcDB records
row,Sequence,protein production
1,MLGFKDIPLTKKVIHIINDIERPFMIRWSNSHDVQQIHDWLQEEEALEVHGNFLCNWNLTRQCHEEGRLLVLIDEIKGIPVAYQWGQLLSSGILQVRNGWRGNGLGRLVVEHCVELALQQDEMVLQVECKPSSSIPFWEAMGFTIVEGEFGKNAKGFRVLSKNLALPPGGRPILATISSFPEERNWQDNVPAIASYHLNAIVADDGKVYLAERASFPKCFRRMSRDPVIEIIVEGKLVYRDKAKYQGAQDHGVKWCRNGFYIDVVTI,failed
2,MLGHNKISVIIPAYNEERRIGNVLKGIPDFVDEVIVVDDGSSDGTSKVAMELGATVIRLNKNSGKGAAMREGLKISTGDIIVFMDADGQHNPKEIYRLVKPIVEGRADLVIGRRIITRGKRPMSRKISNFITTRLITLKTRKKILDTQSGFRAIRREFVPVIESDRYEVETEVLIKAIKKGARILEVPISTRYDVETGHFKMIDIFRFLFALIKYLEHHHHHH,failed
3,MLHFAHIFQNKVHTMNITKPFPLPTGYFGIPLGLAALSLAWFHLENLFPAARMVSDVLGIVASAVWILFILMYAYKLRYYFEEVRAEYHSPVRFSFIALIPITTMLVGDILYRWNPLIAEVLIWIGTIGQLLFSTLRVSELWQGGVFEQKSTHPSFYLPAVAANFTSASSLALLGYHDLGYLFFGAGMIAWIIFEPVLLQHLRISSLEPQFRATMGIVLAPAFVCVSAYLSINHGEVDTLAKILWGYGFLQLFFLLRLFPWIVEKGLNIGLWAFSFGLASMANSATAFYHGNVLQGVSIFAFVFSNVMIGLLVLMTIYKLTKGQFFLK,not failed
4,MLHGLKQRLEALHHPGELEGSPQNLHQLLGVSIEQSVPQAQTMLVERHLASLTGDEARLLAALSDGSAFALLTLYSGSRFSRGEVLYRYSNAGRAAGIQCNDFIALYLNHLFAQGLVIASDFTESLRTDYELCEGDSDFRKAQAELQIHLPKLSIRRETLRISPLGRQLWTLMTTPADIEE,not failed
5,MLHIDDAMIEDAVTPQAAQEVLHAAFLDFGRGSAAMQRRVRTEAGGVKLSTLGAVIPGQGVAGAKVYTTIKGQFQFVILLFSAADGRPLATCDAGTLTRKRTAACTVLAAGALARLRSSVLGLFGAGTQGVEHAAQLSARFALEAILVHDPHASPEVVERIGRRCGVPARMAAPADIAAQADIVVTATRSATPLFAGQALRAGAFVGAIGSSLPHTRELDDEVLRRARAVVVEWREQTLSEAGDLVLAAPDTGLDAKVVELADVLAGRATARQADEDIVIYKSVGVGLEDVALAGYAYRRLAAQRGWPAP,failed
6,MLIDIALATYNGEKYIQEMLNSISNQTYQDFMIHLRDDGSTDNTLTLCENHKLYEQGKLKIYKDNIKGLGASKNFLKILGHCNSEYIFLCDQDDFWMKDKIQKMLDHIQKHEYKNNIKVPTLVFSDLQIVDRSLNIIADSFYRNSIKSSMCSSPFDFLLSNHIPGCAMVVNKSLLESIQPLPENFRMHDWWLAFVASFYGKIAYLDEPLIKYRQHGGNTVGVPGMNINILRQIKSILNFRDLLDKGLLHKKKMEIYIDKTCSNKILSYESNRFYDFLKGNMPFLEKNKIFKQIKFGEPLILSYLVWLFL,failed
7,MLIENAVDFIENANIGIHTVSPEGIIKYANEHELTVLGYTEDEYVGHHVSEFQFDKSCLEQMMIKLAKFESFSNFPAMVCGKLKMKYILYNSSVYAEDGEFVHTRCFGNEISKSVYQACKVDYKKSLTNRVD,failed
8,MLIKKIDLHKDPIRKLFFYYFIPLAFSMISLSTYSMIDGMFVGKKLGKEAIAAVNIAWPIFPGLIAYELLFGFGAASIVGYFLGQNKTHRARLVFSSVFYFVAISAFILSMALLPFSETIARFFGSNDALLSMSKRYIEIILMGAVFMVLHPLADVFVVNDKRPILAMVAMLIGSLANIFFNYLFIFVLKVGVQGSAIATVIGHAIGVLVLMQHFWRKKGQLYFIKRFSLSSVISSAKSGVPQSTAEFSASVMILLFNTAIMHTAGERFVSMYGIVMYNAIIFFTTLFAISQGIQPIASFSYGARNLERVKEVFVFGLKAAFCIGIVFYGAYYFLDEFLIKLYLQPSEQDPLFMQETKRAMNIYYVGYIFLGMTLLCAVFFQSIQRTKSSFIITLSHTLGFIVILLPILSHFYGINGVWVTYPIAQFLAFLVALGVTYYEIKKGVFTTYKEKNPIALKT,failed
9,MLIKSIKLTNILSFGEAAETIELRPLNVVIGPNGSGKSNLIAAIELFRALPKDAPAFFRREGGIHDWLWKGGEIPPVATIESVFDEKGPLSGLRYALRFTVVGQHFEIIEERIEEEAAEGAQTPPPYHFKDGRGALRALLANEGEIKAWSFVIPSEIDPTQSILAQRKDPHQYPELTSLGAVLPTMRCYREWTMGPQSPPRQDQKTDLRNDYLDPYGAGNLALVLQRLGNKPALKKRFLEALRLLYEGIDDYGVTIEGGTSQIFFHEGGRFTIPASRLSDGTLRYLCLLAILLDPAPPPLLCIEEPELGLHPDILPTLADLLKEASERTQVIVTTHSDGLVDAMTDRPEAVLIAEKNENGTTLTRLDGETLKPWLAKYRLGELWTRGGIGGTRWLEHHHHHH,failed
10,MLILLPDFIGHPSCFRGLLARLGATDCRLVDYHRLDAYASIEALASQVLDGLAEEPDWLIGYSFGGLVGYEMARQLPASRLLMIDSHLPWPALRRMPPSEQYQRWLSAEMREWIALMSELGELREEVLLRNVELFGRWQPRHRLARASWVRCRDDAGRDPAAERWCDLIERLDTFPCERPHHLALQDPAVIDFIVHTVSK,failed
11,MLIPHDLLEADTLNNLLEDFVTREGTDNGDETPLDVRVERARHALRRGEAVILFDPESQQCQLMLRSEVPAELLRD,not failed
12,MLIPQQKELNSISLLAEVSRTVTNENDISKVLRIVLFIMSEHLDMLRGMITILNRETGEITTNESFGLTEEEMERGRYRIGEGIIGQVVKTGKPFIVPNIGDEPLFLDRTRSRQKTKKENLCFICIPIRSGAEIIGTLSADRQLEPSLLKESGKRMKAEDERMDLLQHYVDLLSIIASMISQAVRLKQIAHEATAGIAVVEHKPQQEK,failed
13,MLIQDLSHKNIKDYTSIYGEEYINRIVEKAEKLRDITLTHVNSTSLGGGVAEILYSLVPLMNSIGITTRWEVIKGGNEFFNVTKKIHNALQGAEIDLSDEEKRIYLENNKWNVENELVLDSTHIVVHDPQPLPIRKFAENNKKWIWRCHIDLSTPYKPVWLFISQLLRGYEASIFHLKEYIHPETPTPIKYVMPPSIDPLSDKNKELSWSTIEKILNRYGIDPEKPILLQVARFDPWKDPFAAIDVYRLVKKEFPDTQLLLVTSMATDDPEGWIYYEKTLKYAGMDEDIFILTNLKNVGTLEVNAFQRAATVVLQMSRREGFGLAVTEALWKRKPVVARPRGGIKLQVIDGVTGHLAETVEEAAKKTIYLIKNPQKRKELGENGYKHVLKHFTIVRHIENYLDLLAKIV,failed
14,MLISALIVMVITYCLIISRSITKIPPWASMFFGGILMVILGIISPEEALQSINLDVILFLITLFTFASALEVSGFLKFLAYKIIEKFKEPRKVLFYILLYSGLLSNLVTNDGVSASWTPVILELSRMIGVSEVPFLYALAVGVTIGSVIMPTGNPQNLLIALESGIKNPFITFTIYLTLPSIISLIIAYFILFRLFRKSLSLPSGINIKKEEEEKVDFDRRLGYLTLTLLVVTIILFFSLSFFKIDILLGSLVTSSILLLLTEKRRDIVRRMDWPTILFFIGLFIFTDGVLKSGIIQYLSNFLPPPDSVASIMIVSILLSQVLSNVPLVAIYIPIMISHSGITVVDWLALAAGSTIAGNFTILGAASNVIISEASESRGGKGFNFVEFMKYTIPILIPNAIIIYLFLVLFR,failed
15,MLISIAFLLVLYLLNYSSFRMLKSFLTLKKISQYAYLWFFILLSIGEAAFVFYRNIMPSHLFVLTSACSFVSFIIFILSLSFYGFSYSIEKIDFLHSRRKSLKNFLKLGFYLALLGYFWRGFYEGLARPKIKETPIYLDKLDKELKIILLTDMHVGSLLQKDFVDYIVEEVNQKEVDMVLIGGDLVDESIEKVKSFLLPLNNLKSTHGTFYVPGNHEYYHGIEPILSFLDTLNLTILGNECVHLGGINLCGVYDYFARKRQNFAPDIDKALKKRNESKPTILLAHQPKQIRSLKESHSVDLVLSGHTHAGQIFPFSLLVKLAQTYLHGLYKHSPTTQIYVSSGAGYWGIPLRFLAPSEIAYLRLLPKNQA,failed
16,MLITSSLLPPSGTWIFNINSLFCSLSIKNALSNLPLMRFCNSSTTQHTSTLVISLFIISPENIIFFFRIFYYCDNMEREEFLKYLRQGKYDKLAKLINSYSDILSFLDELFTSNKKDDVRRALLVLKRLDNEVIERYLYYILLNLNEKRIIAKEAEEILKKITNKESVEEAILEIAKKPLDEKIVYLFLQNMKEGNIFFRAILEHTKSKNMEESIKILLKNYNSEMILKILANKLYSSEKDERELTINILLNIVDSLTDEQKNILRGHLSVSLLGDEDKKLYRKFKQLFEKLDIPAELSDEQIKSLLKSHGKTTLNIILRENIKLPANFYNREFLKDFLYTGDEEKQFVGVKLISLKKDSKKKVDLLFRFLNYGYGKAKTAAIRELKKIAQNNNELKKYIENKTLMYAKKMNLGLKISSLRILKEFAKKEHLEFLINEHKRLKELVYKLEEEKFMGGFRHLLMMEEEIRKCNVAMRLIEEIVAEICLKNDIHYNDLKISEKLGYEFYRTMELIGVKNLNLIDIHEFLEDVKRDGELITYLSGIVINNNKIDDNLAKKILEVTEKAEMEDKDVLNANKIMIYASLNRVDKIGEIINMAEGYYSKLAFINGVKKFIDEKLLDEEKINLLIPKIAEMIYSTKKLRLMALEFFKNYPNELVLPILINEIGNYRGEDKLMIDVISNVIFKYPNNIHSIRELLNTDKRNSALKILLKVSEKRPELLEDFIYLLAGMYSSANEEDKKLIKKILKNITTEEQKLILKPIIGDL,failed
17,MLITVYCVRRDLTEVTFSLQVNPDFELSNFRVLCELESGVPAEEAQIVYMEQLLTDDHCSLGSYGLKDGDMVVLLQKDNVGLRTPGRTP,not failed
18,MLKALKKIFGKADGTQPQSGSSPVPQGPAGATAKGTAPTGEKPTEKRPRKPRPPRADNESGAPRAAEKAEKAEKPAKPAGKEGRDAKPRTDKPRRERKPKPVDNWKLEDFVVEPQEGKTRFHDFNLAPSLMHAIHDLGFPYCTPIQAQVLGFTLRGQDAIGRAQTGTGKTAAFLISIITQLLQTPPPKERYMGEPRALIIAPTRELVVQIAKDAAALTKYTGLNVMTFVGGMDFDKQLKQLEARFCDILVATPGRLLDFNQRGEVHLDMVEVMVLDEADRMLDMGFIPQVRQIIRQTPHKGERQTLLFSATFTDDVMNLAKQWTVDPAIVEIEPENVASDTVEQHVYAVAGSDKYKLLYNLVAQNNWERVMVFANRKDEVRRIEERLTKDGISAAQMSGDVPQHKRIRTLEGFREGKIRVLVATDVAGRGIHIDGISHVINFTLPEDPDDYVHRIGRTGRAGASGTSISFAGEDDAFALPPIEELLGRKITCEMPPAELLKPVPRKH,failed
19,MLKANVFCAGPVEALILDWAGTTIDFGSLAPVYAFMELFKQEGIEVTQAEAREPMGTEKSEHIRRMLGNSRIANAWLSIKGQASNEEDIKRLYDLFAPIQTRIVAQRSQLIPGWKEVFDKLIAQGIKVGGNTGYGPGMMAPALIAAKEQGYTPASTVFATDVVRGRPFPDMALKVALELEVGHVNGCIKVDDTLPGIEEGLRAGMWTVGVSCSGNEVGLDREDWQALSSDEQQSYRQHAEQRLFNAGAHYVIDSVADLETVITDVNRRLARGEKP,not failed
20,MLKERILSAIAMIIAVLAGIFLLSPLPFTLILAAVITAAIWEWAQFAGFKRSLSRAIITFVTICLFILLIFANTHYIRAGRFLTDQTIPLLFISCCWWLIAFGLVISYPKSASLWSKSITAKFIFGFCTLIPFFIAILALRFNNYAFNQFQGAYLLLYVCLLVWCADSGAYFFGRAFGKRKLAAKVSPSKSWEGALGGLITSCVMALLFIKLTPNNIFGREFETLPFIIVSVATVAVSSLGDLAESMFKRQANIKDSSNLIPGHGGILDRIDSLTAAIPFFATLFFFVL,failed
